One assay has as its target FLAG-SEPN1^D80A (human) (UniProt Q9NZV5). The assay is described as follows: sucrose gradient sedimentation; lysates of HeLa cells treated for 2 h with DMSO or Tg; 4% to 20% sucrose gradients, 19 fractions, FLAG immunoblot; markers BSA, IgG, catalase.
The next assay addresses FLAG-SEPN1^U428C (human) (UniProt Q9NZV5). The description is as above.

For the substance “FLAG-SEPN1^D80A (from UniProt Q9NZV5-2 44-556) (natural protein)”, in the assay with FLAG-SEPN1^D80A (human), the percent monomer (DMSO-treated cells) was found to be 79.7%, the percent monomer (Tg-treated cells) was 78.4%, the percent oligomer (DMSO-treated cells) worked out at 21.5% and the percent oligomer (Tg-treated cells) stood at 21.5%.

“FLAG-SEPN1^U428C (from UniProt Q9NZV5-2 44-556) (natural protein)”: in the assay with FLAG-SEPN1^U428C (human), the percent monomer (Tg-treated cells) was determined as 61.8% and the percent oligomer (DMSO-treated cells) is 96.2%.

These data come from PMC7474598.
